According to patent publication US20150329642A1 (Genmab, published 2015):

Key:
[1] = target: T1, human c-Met, membrane-bound on cells (human, UniProt P08581 25-1390); experiment: flow cytometry on A431 cells (PE goat anti-human IgG); bottom panel
T1 construct: whole, on cells; A431 cells carry on average 30,000 copies of c-Met per cell (Qifi); also called c-Met expressed on A431 cells; c-Met on A549 cells
Protocol: The binding of anti-c-Met antibodies and monovalent forms thereof (also termed “UniBody molecules” herein, see Example 5) to A431 cells expressing membrane-bound c-Met (purchased at ATCC, CRL-1555) was tested using flow cytometry (FACS Canto II, BD Biosciences). […] Binding of anti-c-Met antibodies and UniBody molecules was detected using a Phycoerythrin-conjugated goat-anti-human IgG antibody (Jackson). IgG1-5D5 was used as positive control antibody, and HuMab-KLH was used as isotype control antibody. EC₅₀ values were determined by means of non-linear regression (sigmoidal dose-response with variable slope) using GraphPad Prism V4.03 software (GraphPad Software, San Diego, Calif., USA).
Also maximum binding levels were unchanged between IgG1's and UniBody molecules. For antibodies 005, 006, 008, 035, 045 and 058, on the other hand, a more than 2-fold […] as well as a decrease in maximum binding level was observed when comparing IgG1 with their UniBody counterpart. This was most likely due to the […] (Kd) of these antibodies (see Example 14).

cMetECDHis = target: T2, cMetECDHis (human, UniProt P08581 25-932, limits assumed, biotinylated in the cross-block ELISA of Example 17); experiment: cross-block ELISA; competitor 064
T2 construct: Expressed in HEK-293F cells; also called soluble cMetECDHis; biotinylated cMetECDHis
Protocol: First, the optimal coating concentrations of the tested anti-c-Met antibodies and the optimal cMetECDHis concentration were determined. Therefore, ELISA wells were coated overnight at 4° C. with anti-c-Met HuMabs serially diluted in PBS (8 μg/mL in 2-fold dilutions). Next, the ELISA wells were washed with PBST (PBS supplemented with 0.05% Tween-20 [Sigma-Aldrich, Zwijndrecht, The Netherlands]) and blocked for one hour at room temperature (RT) with PBSTC (PBST supplemented 2% [v/v] chicken serum [Gibco, Paisley, Scotland]). Subsequently, the ELISA wells were washed with PBST and incubated for one hour at RT with biotinylated cMetECDHis serially diluted in PBSTC (1 μg/mL in 2-fold dilutions). Unbound biotinylated cMetECDHis was washed away with PBST, and bound biotinylated cMetECDHis was incubated for one hour at RT with 0.1 μg/mL Streptavidin-poly-HRP (Sanquin, Amsterdam, The Netherlands) diluted in PBST.
ELISA wells were coated with anti-c-Met antibody at a sub-optimal dose as described above. After blocking of the ELISA wells, they were incubated with the predetermined concentration of biotinylated cMetECDHis in the presence of an excess of anti-c-Met antibody. The reaction was developed as described above. Residual binding was expressed as a percentage relative to the binding observed in the absence of competitor antibody.

cMetSEMA-567His8 = target: T3, cMetSEMA-567His8 (human, UniProt P08581 25-567, limits assumed); experiment: TR-FRET; displacement of AlexaFluor-647-HGF from cMetSEMA-567His8
T3 construct: In the TR-FRET assay detected by anti-6xhis Europium3+; also called cMetSEMAHis; SEMA domain of c-Met; not shown: C-terminal His tag; the text says His9, the construct name says His8
Protocol: Therefore, the interaction of anti-c-Met antibodies with the SEMA domain of the c-Met receptor was studied using TR-FRET technology. […] The mean fluorescent intensity at 665 nm was measured on the EnVision 2101 Multilabel reader (PerkinElmer).
A 4-fold serial dilution of unlabeled anti-c-Met antibody ranging from 0.49-8000 ng/mL was tested. After overnight incubation at 4° C. in the dark, mean fluorescence intensity at 665 nm was measured using the EnVision 2101 Multilabel reader applying the following settings: Lance/Delfia dual mirror, emission filter 615-665 nm, excitation filter 320 nm, delay time 60 μs, window 100 μs, 100 flashes, 2000 μs per cycle and bidirectional row-by-row reading. To determine IC₅₀ values, the binding curves were analyzed with non-linear regression (sigmoidal dose-response with variable slope) using GraphPad Prism V4.03 software (GraphPad Software, San Diego, Calif., USA).

| Binder | EC50 [1] [nM] | residual binding, % of no competitor (cMetECDHis) [%] | % inhibition (cMetSEMA-567His8) [%] | IC50 (cMetSEMA-567His8) [µg/mL] |
| --- | --- | --- | --- | --- |
| anti-c-Met HuMab 181 (IgG1) (antibody, V domains shown, also called TH1016-181; PC1016-181) VH: QVQLVQSGAEVKKPGASVKVSCKASGYTFTSYGISWVRQAPGQGLEWMGWISTYNGYTNYAQKLQGRVTMTTDTSTSTAYMELRSLRSDDTAVYYCARDLRGTAYFDYWGQGTLVTVSS VL: DIQMTQSPSSVSASVGDRVTITCRASQGISNWLAWYQHKPGKAPKLLIYAASSLLSGVPSRFSGSGSGTDFTLTISSLQPEDFATYYCQQANSFPITFGQGTRLEIK | 0.679 | 2.1 | 93 | 0.34 |
| anti-c-Met HuMab 098 (IgG1) (antibody, V domains shown, also called TH1016-098; PC1016-098) VH: QVQLVQSGAEVKKPGASVKVSCKASGYTFTNFGISWVRQAPGQGLEWMGWISAFNGHTDYSQKVQGRVTMTTDTSTSTAYMELRSLRSDDTAVFYCARSHYYGSGSPFDYWGQGTLVTVSS VL: DIQMTQSPSSLSASVGDRVTITCRASQGISNWLAWYQQKPEKAPKSLIYAASSLQSGVPSRFSGSGSGTDFTLTISSLQPEDFATYYCHQYKSYPWTFGQGTKVEIK | 0.9 | 9.3 | 98 | 0.55 |
| anti-c-Met HuMab 101 (IgG1) (antibody, V domains shown) VH: QVQLVQSGGEVKKPGASVKVSCKASGYTFTRHGITWVRQAPGQGLEWMGWISADNGNTNYAQKFQDRVTMTTDTSTSTAYMELRSLRSDDTAVYFCARVFRYFDWLLPYFDYWGQGTLVTVST VL: not shown | 1.03 | 37.4 | 96 | 0.53 |
